Results: patent publication US7074904

Tests used:
[1] = molecular target: full-length murine I-A^d/OVA 323-339 MHC class II fusion complex (pJRS165.1) expressed on NSO cells (mouse; chicken) (UniProt P04228); assay: flow cytometry, FITC-conjugated isotype control antibody 1:100 on clone NSO/IA^d/OVA.B5
[2] = molecular target: full-length murine I-A^d/OVA 323-339 MHC class II fusion complex (pJRS165.1) expressed on NSO cells (mouse; chicken) (UniProt P04228); assay: flow cytometry, FITC-conjugated isotype control antibody 1:100 on clone NSO/IA^d/OVA.B2
[3] = molecular target: I-A^d on NSO parental cells (untransfected negative control, H-2^d background) (mouse) (UniProt P04228); assay: flow cytometry, FITC-conjugated isotype control antibody 1:100 on untransfected NSO cells (negative control)
[4] = molecular target: full-length murine I-A^d/OVA 323-339 MHC class II fusion complex (pJRS165.1) expressed on NSO cells (mouse; chicken) (UniProt P04228); assay: flow cytometry, FITC-conjugated isotype control antibody 1:100 on clone NSO/IA^d/OVA.B4
[5] = molecular target: murine class II MHC molecule I-A^d on A20.1-11 cells (mouse) (UniProt P04228); assay: flow cytometry, FITC-conjugated isotype control antibody 1:100 on A20.1-11 cells (positive control)
[6] = molecular target: full-length murine I-A^d/OVA 323-339 MHC class II fusion complex (pJRS165.1) expressed on NSO cells (mouse; chicken) (UniProt P04228); assay: flow cytometry, FITC-conjugated isotype control antibody 1:100 on clone NSO/IA^d/OVA.A4

“FITC-conjugated anti-IA^k antibody (Pharmingen), isotype matched irrelevant antibody” gave a peak channel fluorescence [1] of 10 channel, a peak channel fluorescence [2] of 14 channel and a peak channel fluorescence [3] of 5 channel. The peak channel fluorescence [4] was 11 channel, the peak channel fluorescence [5] was 5 channel and the peak channel fluorescence [6] was 34 channel.
